Columns and labels:
Aα392-610 sub-fragment = molecular target: T1, Aα392-610 sub-fragment (Homo sapiens, UniProt P02671); assay: ELISA and kinetic analysis of incorporation into immobilized Aα392-610 sub-fragment; format: biochemical
T1 construct: (residues Aα221-391 and Aα392-610, respectively); made in house; host or cells: E. coli, pET20b expression vector
T1 sequence (P02671 411-629): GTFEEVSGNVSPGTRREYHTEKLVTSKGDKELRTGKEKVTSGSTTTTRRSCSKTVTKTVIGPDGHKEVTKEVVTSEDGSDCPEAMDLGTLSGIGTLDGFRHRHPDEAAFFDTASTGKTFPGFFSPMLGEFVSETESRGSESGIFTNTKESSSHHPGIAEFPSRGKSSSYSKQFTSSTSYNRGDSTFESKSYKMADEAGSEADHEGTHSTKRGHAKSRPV
Description: (§1) The interaction between thymosin β4 and fibrin(ogen) and its fragments in the presence or absence of FXIIIa was studies by ELISA using plastic microliter plates. Wells of microliter plates were coated overnight at […] with fibrinogen and fibrin at 10 μg/mL or with the recombinant fragments of 20 μg/ml, all in 0.1 M NaHCO3 buffer, pH 8.3. Fibrin was made by addition to the wells of a mixture containing 10 μg/mL fibrinogen 1 NIH u/ml thrombin and 400 u/ml aprotinin, followed by overnight incubation at +4° C. The wells were then blocked by incubation with Super Blocker (Pierce) at 37° C. for 1 h. Following washing with TBS containing 0.05% Tween-20 (TBS-Tween), the indicated concentrations of thymosin β4, FXIII, FXIIIa(Thr) and FXIIIa(Ca) were added to the wells and incubated for 2-2.5 h at 37° C. Bound (incorporated) thymosin β4 was detected by the reaction with rabbit anti-thymosin β4 serum and peroxidase-conjugated anti-rabbit IgG. A TMB Microwell Peroxidase Substrase was added to the wells, and the incorporated thymosin β4 was measured spectrophotometrically at 450 nm.
To analyze kinetics of the incorporation of thymosin β4 into different fibrin(ogen) fragments, they were immobilized onto the wells of microliter plates (as described above, except that the concentration of all fragments was 20 μg/mL) and incubated with several concentrations of thymosin β4 in the presence of 10 μg/L thrombin-activated factor XIIIa. The incubation mixtures were inhibited every 15 min during 1 hour of incubation by the addition of iodacetamide to final concentration 10 mM. Incorporated thymosin β4 at each time point was detected with rabbit anti-thymosin β4 serum as described above. The initial rates of the reaction of incorporation (V) at different concentrations of thymosin β4 were determined from the slopes of the reaction time course plots and expressed as tangent α=A450/t (min), where A450 represents absorbance at 450 nm in optical units (o.u) which is proportional to the amount of incorporated thymosin β4. […]

fibrinogen = molecular target: T2, fibrinogen (Homo sapiens, UniProt P02671); assay: Solid-phase binding assay (ELISA), immobilized fibrinogen
T2 construct: purchased Enzyme Research Laboratories (South Bend, Ind.)
T2 sequence (P02671 20-644 isoform P02671-2 limits assumed): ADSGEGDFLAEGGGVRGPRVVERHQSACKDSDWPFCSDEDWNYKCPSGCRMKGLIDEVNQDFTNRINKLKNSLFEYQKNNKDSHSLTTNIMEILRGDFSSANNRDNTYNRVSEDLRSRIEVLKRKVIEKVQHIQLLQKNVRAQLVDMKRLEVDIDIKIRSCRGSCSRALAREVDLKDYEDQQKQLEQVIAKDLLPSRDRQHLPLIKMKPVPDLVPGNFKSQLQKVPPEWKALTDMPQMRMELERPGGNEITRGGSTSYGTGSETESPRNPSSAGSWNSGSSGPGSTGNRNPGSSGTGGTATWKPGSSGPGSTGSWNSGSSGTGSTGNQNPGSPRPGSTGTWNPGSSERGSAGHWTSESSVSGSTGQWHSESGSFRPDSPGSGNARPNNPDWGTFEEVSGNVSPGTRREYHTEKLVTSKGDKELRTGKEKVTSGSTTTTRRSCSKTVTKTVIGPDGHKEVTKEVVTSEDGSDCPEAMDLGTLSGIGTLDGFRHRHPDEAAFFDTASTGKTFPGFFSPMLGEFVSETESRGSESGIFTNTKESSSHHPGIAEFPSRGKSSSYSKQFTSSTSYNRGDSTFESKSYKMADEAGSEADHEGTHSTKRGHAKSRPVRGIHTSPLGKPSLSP
T2 sequence (P02675 31-491 partner): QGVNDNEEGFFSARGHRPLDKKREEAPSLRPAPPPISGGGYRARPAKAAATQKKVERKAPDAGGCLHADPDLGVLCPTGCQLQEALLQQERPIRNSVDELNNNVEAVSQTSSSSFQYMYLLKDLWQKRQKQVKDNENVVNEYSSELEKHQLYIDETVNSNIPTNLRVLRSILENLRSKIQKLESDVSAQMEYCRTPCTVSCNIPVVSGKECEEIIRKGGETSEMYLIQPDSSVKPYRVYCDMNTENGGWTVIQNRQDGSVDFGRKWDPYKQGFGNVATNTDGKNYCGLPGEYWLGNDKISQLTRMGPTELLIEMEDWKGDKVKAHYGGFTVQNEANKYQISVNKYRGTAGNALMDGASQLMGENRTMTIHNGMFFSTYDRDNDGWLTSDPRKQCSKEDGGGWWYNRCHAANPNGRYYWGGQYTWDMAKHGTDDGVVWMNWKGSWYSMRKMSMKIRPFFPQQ
T2 sequence (P02679 27-437 isoform P02679-2 partner limits assumed): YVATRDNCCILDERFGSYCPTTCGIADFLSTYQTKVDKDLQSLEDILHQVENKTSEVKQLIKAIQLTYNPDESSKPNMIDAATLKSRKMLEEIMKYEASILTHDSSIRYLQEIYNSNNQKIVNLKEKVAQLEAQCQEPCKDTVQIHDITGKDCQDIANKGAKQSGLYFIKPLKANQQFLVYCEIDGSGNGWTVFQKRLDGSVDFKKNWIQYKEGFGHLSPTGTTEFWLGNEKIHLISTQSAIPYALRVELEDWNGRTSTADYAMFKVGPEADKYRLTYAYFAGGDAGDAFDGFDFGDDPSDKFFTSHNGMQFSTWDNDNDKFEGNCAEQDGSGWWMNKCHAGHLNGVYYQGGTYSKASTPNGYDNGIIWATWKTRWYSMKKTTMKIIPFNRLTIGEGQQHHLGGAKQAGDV
Description: as §1

non-covalent interaction with Aα392-610 sub-fragment (ELISA) (Aα392-610 sub-fragment; non-activated factor XIII or without it): no significant non-covalent interaction
incorporation into immobilized Aα392-610 sub-fragment (ELISA) (Aα392-610 sub-fragment; presence of factor XIIIa): incorporated effectively
Km (Aα392-610 sub-fragment; thrombin-activated factor XIIIa, Lineweaver-Burk plot, read-out: apparent Michaelis constant (Km) for incorporation into the Aα392-610 sub-fragment): 8.6 ± 3.7 µM
factor XIIIa-mediated incorporation into immobilized fibrinogen (ELISA signal) (fibrinogen; factor XIII activated by CaCl2): the signal substantially increased
non-covalent interaction with immobilized fibrinogen (ELISA signal) (fibrinogen; thymosin β4 150 μg/mL (30 μm), absence of factor XIII or non-activated factor XIII): no significant non-covalent interaction
Substance: thymosin β4
